B1: GpH7-B3 variant Y296_11K/GpL16-k0 (antibody, human IgG1, kappa)
heavy: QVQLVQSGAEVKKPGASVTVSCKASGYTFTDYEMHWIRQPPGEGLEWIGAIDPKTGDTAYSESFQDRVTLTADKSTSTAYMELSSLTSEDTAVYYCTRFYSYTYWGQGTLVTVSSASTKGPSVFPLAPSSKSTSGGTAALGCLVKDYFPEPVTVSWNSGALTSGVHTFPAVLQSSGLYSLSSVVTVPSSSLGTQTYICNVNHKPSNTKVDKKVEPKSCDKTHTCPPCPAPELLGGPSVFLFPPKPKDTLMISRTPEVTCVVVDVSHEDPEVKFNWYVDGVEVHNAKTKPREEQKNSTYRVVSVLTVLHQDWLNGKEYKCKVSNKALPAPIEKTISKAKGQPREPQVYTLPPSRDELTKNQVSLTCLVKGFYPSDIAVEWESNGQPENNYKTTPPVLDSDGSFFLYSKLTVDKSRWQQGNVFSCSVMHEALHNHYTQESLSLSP
light: DIVMTQSPLSLPVTPGEPASISCQASESLVHSNRNTYLHWYLQKPGQSPQLLIYKVSNRFSGVPDRFSGSGSGTDFTLKISRVEAEDVGVYYCSQNTHVPPTFGQGTKVEIERTVAAPSVFIFPPSDEQLKSGTASVVCLLNNFYPREAKVQWKVDNALQSGNSQESVTEQDSKDSTYSLSSTLTLSKADYEKHKVYACEVTHQGLSSPVTKSFNRGEC
notes: homodimerized IgG1, mutation in both H chains; also called Ho Ab
B2: GpH7-B3 variant Y296_12R/GpL16-k0 (antibody, human IgG1, kappa)
heavy: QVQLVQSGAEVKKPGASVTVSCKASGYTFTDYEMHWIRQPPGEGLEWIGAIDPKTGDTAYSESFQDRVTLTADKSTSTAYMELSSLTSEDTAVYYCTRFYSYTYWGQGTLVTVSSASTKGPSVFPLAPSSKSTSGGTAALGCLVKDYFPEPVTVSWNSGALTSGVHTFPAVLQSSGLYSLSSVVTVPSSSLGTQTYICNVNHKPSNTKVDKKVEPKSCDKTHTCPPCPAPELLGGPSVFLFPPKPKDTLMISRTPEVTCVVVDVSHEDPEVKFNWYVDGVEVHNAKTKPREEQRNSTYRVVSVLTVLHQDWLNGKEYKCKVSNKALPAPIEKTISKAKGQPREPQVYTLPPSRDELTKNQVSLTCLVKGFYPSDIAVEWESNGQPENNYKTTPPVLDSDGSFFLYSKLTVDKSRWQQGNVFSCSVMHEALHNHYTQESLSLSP
light: B1 light
notes: as for B1
B3: GpH7-B3 variant Y300_19Q/GpL16-k0 (antibody, human IgG1, kappa)
heavy: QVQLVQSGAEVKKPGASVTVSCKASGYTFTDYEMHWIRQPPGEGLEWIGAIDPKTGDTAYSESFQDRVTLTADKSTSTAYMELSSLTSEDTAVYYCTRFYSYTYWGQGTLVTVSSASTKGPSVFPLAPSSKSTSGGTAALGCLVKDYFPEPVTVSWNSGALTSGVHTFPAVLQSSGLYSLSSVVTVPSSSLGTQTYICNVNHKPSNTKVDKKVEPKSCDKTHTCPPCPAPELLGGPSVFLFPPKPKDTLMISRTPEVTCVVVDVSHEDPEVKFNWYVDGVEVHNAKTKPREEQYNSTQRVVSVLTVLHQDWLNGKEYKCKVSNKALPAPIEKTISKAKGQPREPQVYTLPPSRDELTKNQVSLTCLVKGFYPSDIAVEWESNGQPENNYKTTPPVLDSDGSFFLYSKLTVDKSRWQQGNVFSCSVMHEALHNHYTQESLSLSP
light: B1 light
notes: as for B1
B4: GpH7-B3 variant Y296_16H/GpL16-k0 (antibody, human IgG1, kappa)
heavy: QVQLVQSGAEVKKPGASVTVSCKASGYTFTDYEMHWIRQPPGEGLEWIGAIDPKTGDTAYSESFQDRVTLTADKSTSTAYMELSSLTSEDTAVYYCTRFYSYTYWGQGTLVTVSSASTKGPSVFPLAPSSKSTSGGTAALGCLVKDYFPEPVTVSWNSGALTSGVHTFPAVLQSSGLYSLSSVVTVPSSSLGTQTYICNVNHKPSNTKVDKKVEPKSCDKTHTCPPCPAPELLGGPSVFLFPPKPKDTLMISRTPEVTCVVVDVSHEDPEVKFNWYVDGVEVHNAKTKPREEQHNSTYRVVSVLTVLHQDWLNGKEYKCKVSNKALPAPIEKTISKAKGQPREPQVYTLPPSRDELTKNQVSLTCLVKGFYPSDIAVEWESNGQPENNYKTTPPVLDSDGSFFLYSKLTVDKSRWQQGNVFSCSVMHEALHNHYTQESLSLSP
light: B1 light
notes: as for B1
B5: GpH7-B3 variant Y300_20W/GpL16-k0 (antibody, human IgG1, kappa)
heavy: not shown
light: B1 light
notes: as for B1
B6: GpH7-B3 variant Y300_11K/GpL16-k0 (antibody, human IgG1, kappa)
heavy: not shown
light: B1 light
notes: as for B1
B7: GpH7-B3 variant Y296_20W/GpL16-k0 (antibody, human IgG1, kappa)
heavy: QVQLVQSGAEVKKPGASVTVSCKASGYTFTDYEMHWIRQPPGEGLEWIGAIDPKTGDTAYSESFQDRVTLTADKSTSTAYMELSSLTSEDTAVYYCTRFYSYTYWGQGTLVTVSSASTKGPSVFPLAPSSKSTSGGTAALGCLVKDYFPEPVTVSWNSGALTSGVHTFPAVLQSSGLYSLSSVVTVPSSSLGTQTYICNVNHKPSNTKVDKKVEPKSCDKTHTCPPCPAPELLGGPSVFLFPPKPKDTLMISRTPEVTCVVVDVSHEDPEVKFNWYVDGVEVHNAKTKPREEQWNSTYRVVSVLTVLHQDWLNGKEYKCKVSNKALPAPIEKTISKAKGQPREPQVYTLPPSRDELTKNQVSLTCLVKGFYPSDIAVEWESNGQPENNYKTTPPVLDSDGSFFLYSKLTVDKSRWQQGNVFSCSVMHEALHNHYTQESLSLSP
light: B1 light
notes: as for B1
B8: GpH7-B3 variant Y300_06M/GpL16-k0 (antibody, human IgG1, kappa)
heavy: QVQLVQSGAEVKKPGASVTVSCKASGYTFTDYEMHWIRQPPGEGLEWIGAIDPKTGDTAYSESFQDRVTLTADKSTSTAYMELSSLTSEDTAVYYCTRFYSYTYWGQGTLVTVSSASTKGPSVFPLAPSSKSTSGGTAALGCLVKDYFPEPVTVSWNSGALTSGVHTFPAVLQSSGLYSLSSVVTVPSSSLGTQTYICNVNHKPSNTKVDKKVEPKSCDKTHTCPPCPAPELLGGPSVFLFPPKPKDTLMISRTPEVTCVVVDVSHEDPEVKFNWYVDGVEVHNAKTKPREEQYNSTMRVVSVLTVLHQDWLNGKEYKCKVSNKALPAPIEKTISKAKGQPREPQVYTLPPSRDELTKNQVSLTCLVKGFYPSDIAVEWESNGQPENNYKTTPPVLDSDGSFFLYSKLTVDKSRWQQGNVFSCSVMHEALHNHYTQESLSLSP
light: B1 light
notes: as for B1
B9: GpH7-B3 variant Y300_08L/GpL16-k0 (antibody, human IgG1, kappa)
heavy: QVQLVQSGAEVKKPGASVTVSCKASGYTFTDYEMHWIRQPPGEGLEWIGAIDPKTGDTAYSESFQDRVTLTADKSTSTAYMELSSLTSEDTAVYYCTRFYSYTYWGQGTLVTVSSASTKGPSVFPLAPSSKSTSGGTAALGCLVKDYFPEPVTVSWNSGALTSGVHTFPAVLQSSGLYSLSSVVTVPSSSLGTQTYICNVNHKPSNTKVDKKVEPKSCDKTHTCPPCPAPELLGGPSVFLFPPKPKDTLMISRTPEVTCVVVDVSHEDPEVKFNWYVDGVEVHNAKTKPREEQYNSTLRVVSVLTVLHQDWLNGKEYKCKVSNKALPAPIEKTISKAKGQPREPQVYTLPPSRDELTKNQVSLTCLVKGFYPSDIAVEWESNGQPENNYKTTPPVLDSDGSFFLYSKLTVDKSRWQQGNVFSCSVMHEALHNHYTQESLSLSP
light: B1 light
notes: as for B1
B10: GpH7-B3 variant Y300_14T/GpL16-k0 (antibody, human IgG1, kappa)
heavy: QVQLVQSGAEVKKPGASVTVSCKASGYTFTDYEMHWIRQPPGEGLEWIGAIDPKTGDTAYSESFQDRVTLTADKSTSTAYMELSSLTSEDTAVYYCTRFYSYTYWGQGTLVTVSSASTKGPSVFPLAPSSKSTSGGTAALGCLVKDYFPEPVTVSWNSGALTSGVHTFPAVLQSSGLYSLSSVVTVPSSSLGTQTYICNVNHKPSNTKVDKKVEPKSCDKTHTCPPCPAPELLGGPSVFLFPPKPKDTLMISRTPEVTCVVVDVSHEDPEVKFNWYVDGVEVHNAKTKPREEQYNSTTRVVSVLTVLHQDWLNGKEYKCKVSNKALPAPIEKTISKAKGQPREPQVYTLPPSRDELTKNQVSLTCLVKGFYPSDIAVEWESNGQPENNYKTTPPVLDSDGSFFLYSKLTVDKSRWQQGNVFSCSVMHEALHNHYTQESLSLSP
light: B1 light
notes: as for B1
B11: GpH7-B3 variant Y300_13S/GpL16-k0 (antibody, human IgG1, kappa)
heavy: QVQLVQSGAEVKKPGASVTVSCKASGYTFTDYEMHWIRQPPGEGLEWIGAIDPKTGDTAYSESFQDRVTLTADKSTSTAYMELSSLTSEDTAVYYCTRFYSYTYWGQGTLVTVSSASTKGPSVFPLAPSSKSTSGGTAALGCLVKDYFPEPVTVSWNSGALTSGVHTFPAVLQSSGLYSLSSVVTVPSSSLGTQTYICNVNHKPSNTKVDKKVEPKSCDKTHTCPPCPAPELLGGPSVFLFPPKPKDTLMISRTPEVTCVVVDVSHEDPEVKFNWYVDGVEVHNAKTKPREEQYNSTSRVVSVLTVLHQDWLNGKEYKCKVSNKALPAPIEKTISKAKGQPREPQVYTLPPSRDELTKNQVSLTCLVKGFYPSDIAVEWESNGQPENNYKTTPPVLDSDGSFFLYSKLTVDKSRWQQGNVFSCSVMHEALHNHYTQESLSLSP
light: B1 light
notes: as for B1
B12: GpH7-B3 variant Y300_03V/GpL16-k0 (antibody, human IgG1, kappa)
heavy: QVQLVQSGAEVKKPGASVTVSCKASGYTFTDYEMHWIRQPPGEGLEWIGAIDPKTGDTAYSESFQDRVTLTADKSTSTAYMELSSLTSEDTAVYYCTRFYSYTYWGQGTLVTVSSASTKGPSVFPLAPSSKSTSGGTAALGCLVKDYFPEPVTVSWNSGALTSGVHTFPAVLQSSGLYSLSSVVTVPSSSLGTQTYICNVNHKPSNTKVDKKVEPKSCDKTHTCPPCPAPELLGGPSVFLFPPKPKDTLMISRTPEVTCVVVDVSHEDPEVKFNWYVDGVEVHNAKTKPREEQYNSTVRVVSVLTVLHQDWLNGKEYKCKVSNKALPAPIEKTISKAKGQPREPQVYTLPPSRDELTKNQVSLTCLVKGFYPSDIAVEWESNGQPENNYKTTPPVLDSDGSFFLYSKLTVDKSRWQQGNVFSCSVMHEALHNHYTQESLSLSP
light: B1 light
notes: as for B1
B13: GpH7-B3 variant Y300_02A/GpL16-k0 (antibody, human IgG1, kappa)
heavy: not shown
light: B1 light
notes: as for B1
B14: GpH7-A5/GpH7-B3 variant T335_04F/GpL16-k0 (antibody, human IgG1, kappa)
heavy 1: not shown
heavy 2: not shown
light: B1 light
notes: heterodimerized IgG1, mutation in one H chain only; also called He Ab
B15: GpH7-A5/GpH7-B3 variant I336_12R/GpL16-k0 (antibody, human IgG1, kappa)
heavy 1: not shown
heavy 2: not shown
light: B1 light
notes: as for B14
B16: GpH7-A5/GpH7-B3 variant I336_08L/GpL16-k0 (antibody, human IgG1, kappa)
heavy 1: not shown
heavy 2: not shown
light: B1 light
notes: as for B14
B17: GpH7-A5/GpH7-B3 variant A330_04F/GpL16-k0 (antibody, human IgG1, kappa)
heavy 1: not shown
heavy 2: not shown
light: B1 light
notes: as for B14
B18: GpH7-A5/GpH7-B3 variant H268_09D/GpL16-k0 (antibody, human IgG1, kappa)
heavy 1: not shown
heavy 2: not shown
light: B1 light
notes: as for B14
B19: GpH7-A5/GpH7-B3 variant Y296_11K/GpL16-k0 (antibody, human IgG1, kappa)
heavy 1: not shown
heavy 2: not shown
light: B1 light
notes: as for B14
B20: GpH7-A5/GpH7-B3 variant H268_13S/GpL16-k0 (antibody, human IgG1, kappa)
heavy 1: not shown
heavy 2: not shown
light: B1 light
notes: as for B14
B21: GpH7-A5/GpH7-B3 variant I336_13S/GpL16-k0 (antibody, human IgG1, kappa)
heavy 1: not shown
heavy 2: not shown
light: B1 light
notes: as for B14
B22: GpH7-A5/GpH7-B3 variant A330_10E/GpL16-k0 (antibody, human IgG1, kappa)
heavy 1: not shown
heavy 2: not shown
light: B1 light
notes: as for B14
B23: GpH7-A5/GpH7-B3 variant T335_19Q/GpL16-k0 (antibody, human IgG1, kappa)
heavy 1: not shown
heavy 2: not shown
light: B1 light
notes: as for B14
B24: GpH7-A5/GpH7-B3 variant I336_11K/GpL16-k0 (antibody, human IgG1, kappa)
heavy 1: not shown
heavy 2: not shown
light: B1 light
notes: as for B14
B25: GpH7-A5/GpH7-B3 variant H268_10E/GpL16-k0 (antibody, human IgG1, kappa)
heavy 1: not shown
heavy 2: not shown
light: B1 light
notes: as for B14
B26: GpH7-A5/GpH7-B3 variant Y296_12R/GpL16-k0 (antibody, human IgG1, kappa)
heavy 1: not shown
heavy 2: not shown
light: B1 light
notes: as for B14
B27: GpH7-A5/GpH7-B3 variant S337_20W/GpL16-k0 (antibody, human IgG1, kappa)
heavy 1: not shown
heavy 2: not shown
light: B1 light
notes: as for B14
B28: GpH7-A5/GpH7-B3 variant S337_09D/GpL16-k0 (antibody, human IgG1, kappa)
heavy 1: not shown
heavy 2: not shown
light: B1 light
notes: as for B14
B29: GpH7-A5/GpH7-B3 variant H268_01G/GpL16-k0 (antibody, human IgG1, kappa)
heavy 1: not shown
heavy 2: not shown
light: B1 light
notes: as for B14

biological target: T1, FcγRIa (human, UniProt P12314 16-292); assay: SPR (Biacore), captured antibody, FcγRIa analyte; relative to GpH7-B3/GpL16-k0
T1 construct: extracellular domain; soluble His-tagged extracellular domain expressed in FreeStyle293 cells, used as analyte in Biacore; also called FcgRI; CD64
T1 sequence (P12314 16-292): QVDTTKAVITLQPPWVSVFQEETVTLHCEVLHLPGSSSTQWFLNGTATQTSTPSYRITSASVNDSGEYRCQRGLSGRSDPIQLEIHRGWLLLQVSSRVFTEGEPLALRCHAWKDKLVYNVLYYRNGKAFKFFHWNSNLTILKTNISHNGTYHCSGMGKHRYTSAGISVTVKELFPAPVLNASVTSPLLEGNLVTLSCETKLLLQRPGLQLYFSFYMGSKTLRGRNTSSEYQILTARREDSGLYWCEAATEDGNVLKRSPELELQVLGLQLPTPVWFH

Ho/Con_1a	Binder
102 relative, control = 100	B1
103 relative, control = 100	B2
110 relative, control = 100	B3
105 relative, control = 100	B4
110 relative, control = 100	B5
101 relative, control = 100	B6
106 relative, control = 100	B7
111 relative, control = 100	B8
109 relative, control = 100	B9
110 relative, control = 100	B10
110 relative, control = 100	B11
112 relative, control = 100	B12
110 relative, control = 100	B13

biological target: T1, FcγRIa; assay: SPR (Biacore), captured antibody, FcγRIa analyte; relative to GpH7-A5/GpH7-B3/GpL16-k0

He/Con_1a	Binder
105 relative, control = 100	B14
102 relative, control = 100	B15
107 relative, control = 100	B16
106 relative, control = 100	B17
110 relative, control = 100	B18
105 relative, control = 100	B19
109 relative, control = 100	B20
102 relative, control = 100	B21
107 relative, control = 100	B22
105 relative, control = 100	B23
105 relative, control = 100	B24
111 relative, control = 100	B25
106 relative, control = 100	B26
105 relative, control = 100	B27
106 relative, control = 100	B28
107 relative, control = 100	B29
